Earlier results, collected in article PMC7060279.

Assays:
TLR4 (Homo sapiens) = TLR4 (Homo sapiens) (UniProt O00206)
TLR4/MD2 (Homo sapiens) = TLR4/MD2 (Homo sapiens) (UniProt O00206)
Chain of TLR4/MD2 (Homo sapiens) (O00206 24-839, chain 1 of 2): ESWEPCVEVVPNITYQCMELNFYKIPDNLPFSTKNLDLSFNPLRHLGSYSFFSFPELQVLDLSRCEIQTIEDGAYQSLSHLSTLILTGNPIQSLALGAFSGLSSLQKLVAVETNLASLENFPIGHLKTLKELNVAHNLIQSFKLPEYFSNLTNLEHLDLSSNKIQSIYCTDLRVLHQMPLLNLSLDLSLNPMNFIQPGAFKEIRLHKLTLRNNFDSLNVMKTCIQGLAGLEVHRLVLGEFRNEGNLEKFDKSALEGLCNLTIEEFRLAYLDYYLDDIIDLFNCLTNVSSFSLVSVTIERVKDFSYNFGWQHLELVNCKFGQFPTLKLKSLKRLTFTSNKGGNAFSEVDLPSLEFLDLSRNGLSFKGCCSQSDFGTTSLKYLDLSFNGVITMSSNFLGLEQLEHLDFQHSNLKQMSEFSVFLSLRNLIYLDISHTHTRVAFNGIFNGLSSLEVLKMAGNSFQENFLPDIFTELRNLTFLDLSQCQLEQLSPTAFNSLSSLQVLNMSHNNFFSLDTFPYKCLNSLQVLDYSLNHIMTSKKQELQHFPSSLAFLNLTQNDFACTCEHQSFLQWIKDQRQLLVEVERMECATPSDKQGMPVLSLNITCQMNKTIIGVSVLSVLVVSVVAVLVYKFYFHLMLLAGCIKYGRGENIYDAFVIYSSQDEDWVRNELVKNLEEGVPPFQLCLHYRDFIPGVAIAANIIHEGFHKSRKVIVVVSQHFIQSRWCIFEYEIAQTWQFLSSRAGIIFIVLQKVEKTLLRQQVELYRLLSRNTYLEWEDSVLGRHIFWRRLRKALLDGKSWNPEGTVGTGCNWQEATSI
Chain of TLR4/MD2 (Homo sapiens) (Q9Y6Y9 19-160, chain 2 of 2, further chain): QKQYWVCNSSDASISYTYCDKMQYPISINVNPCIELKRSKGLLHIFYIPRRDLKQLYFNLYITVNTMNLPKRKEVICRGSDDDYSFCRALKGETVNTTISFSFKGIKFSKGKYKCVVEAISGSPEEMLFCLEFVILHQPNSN

Chain of HMGB1 (P09429 whole entry): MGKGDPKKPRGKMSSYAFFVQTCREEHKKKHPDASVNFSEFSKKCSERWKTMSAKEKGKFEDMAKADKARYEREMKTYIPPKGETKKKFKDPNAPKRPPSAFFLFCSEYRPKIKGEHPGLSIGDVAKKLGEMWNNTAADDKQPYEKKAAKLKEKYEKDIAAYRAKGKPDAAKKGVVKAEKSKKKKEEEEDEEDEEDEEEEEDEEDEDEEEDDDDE
Chain of TLR4 (Homo sapiens) (O00206 24-839): as the sequence (O00206 24-839, chain 1 of 2) above

## HMGB1 (from UniProt P09429)
TLR4 (Homo sapiens)
  Kd: 650 nM
TLR4/MD2 (Homo sapiens)
  Kd: 420 nM
